Test results taken from PMC4414724.

Substrate: OCCCCCO
Test: Reactions of horse liver ADH1E with 1,5-pentanediol and 5-hydroxypentanal
Type: biochemical
Conditions: pH 7.0; 25.0 °C

B1: horse liver ADH1E (Equus caballus) (protein)
chain: STAGKVIKCKAAVLWEEKKPFSIEEVEVAPPKAHEVRIKMVATGICRSDDHVVSGTLVTPLPVIAGHEAAGIVESIGEGVTTVRPGDKVIPLFTPQCGKCRVCKHPEGNFCLKNDLSMPRGTMQDGTSRFTCRGKPIHHFLGTSTFSQYTVVDEISVAKIDAASPLEKVCLIGCGFSTGYGSAVKVAKVTQGSTCAVFGLGGVGLSVIMGCKAAGAARIIGVDINKDKFAKAKEVGATECVNPQDYKKPIQEVLTEMSNGGVDFSFEVIGRLDTMVTALSCCQEAYGVSVIVGVPPDSQNLSMNPMLLLSGRTWKGAIFGGFKSKDSVPKLVADFMAKKFALDPLITHVLPFEKINEGFDLLRSGESIRTILTF
B1 showed a Km of 21 mM.
